B1: TPR t1 (parent)
chain: GACCAAUCUGCCCUCAGAGCUCGAGAACAUCUUCGGAUGCAGAGGAGGCAGGCUUCGGUGGCGCGAUAGCGCCAACGUCCUCAACCUCCAAUGCAUCCCACCACAUGAUGAUGCCUGAAGAGCCUUGGUUUUUUG

Variants of: B1
Assay: polymerase ribozyme fitness, log enrichment relative to wild type (log ratio); higher = more active; in vitro selection for triplet polymerase activity
Method in brief: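 For each subunit of a heterodimeric triplet polymerase ribozyme, a mutant library was built by PCR and transcribed, then taken through a single in vitro selection round in triplicate. Selection involved annealing to a biotinylated primer, the partner subunit and triplets, incubation frozen at −7 °C, gel excision of extended constructs, capture on streptavidin beads and RT-PCR. Genotypes were retained after Illumina sequencing of inputs and outputs only with ≥10 input reads and ≥1 read in each output. Fitness is defined as the logarithm of a genotype's enrichment relative to wild-type enrichment, using inverse-variance-weighted averages across replicates, with the logarithm taken to base 2.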

With C8G C15U G19A U125A as the variant, how does the “polymerase ribozyme fitness (log ratio)” value read?
The value was -2.55.

For C8G C15U U54G G117C, which “polymerase ribozyme fitness (log ratio)” value is on record?
The value was 0.947.

With C8G C20A A84C C124U as the variant, how does the “polymerase ribozyme fitness (log ratio)” value read?
The value was -0.801.

Which “polymerase ribozyme fitness (log ratio)” value does the source give for C8G C20A C72U G77A here?
Its value is -1.87.

With C8G C20G C34U U112A as the variant, how does the “polymerase ribozyme fitness (log ratio)” value read?
Its value is -5.8.

Which “polymerase ribozyme fitness (log ratio)” value does the source give for C8G C20G G44U here?
The value was -4.75.

With C8G C20U C49U as the variant, how does the “polymerase ribozyme fitness (log ratio)” value read?
Its value is -1.11.

Which “polymerase ribozyme fitness (log ratio)” value does the source give for C8G C20U G52U C62A here?
The value was -2.37.

With C8G C20U G69U C101U as the variant, how does the “polymerase ribozyme fitness (log ratio)” value read?
Its value is -1.07.

Which “polymerase ribozyme fitness (log ratio)” value does the source give for C8G C20U U32G C56G G113A U125G here?
Its value is -3.85.

For C8G C22U C53A C101A A121G C124A, which “polymerase ribozyme fitness (log ratio)” value is on record?
The value was -3.25.

Which “polymerase ribozyme fitness (log ratio)” value does the source give for C8G C28A here?
The value was -3.24.

Which “polymerase ribozyme fitness (log ratio)” value does the source give for C8G C28A C72A here?
The value was -4.41.

With C8G C28G as the variant, how does the “polymerase ribozyme fitness (log ratio)” value read?
The value was -2.05.

For C8G C28G C97A U106A C115U U133G, which “polymerase ribozyme fitness (log ratio)” value is on record?
Its value is -5.09.

Which “polymerase ribozyme fitness (log ratio)” value does the source give for C8G C34A U55A C70G C104G G110A here?
The value was -7.2.

With C8G C49A U92A C123U as the variant, how does the “polymerase ribozyme fitness (log ratio)” value read?
The value was -1.03.

For C8G C49G A50U C79U U131C, which “polymerase ribozyme fitness (log ratio)” value is on record?
The value was -2.75.

For C8G C49G C89G, which “polymerase ribozyme fitness (log ratio)” value is on record?
The value was -1.42.

Which “polymerase ribozyme fitness (log ratio)” value does the source give for C8G C53U here?
Its value is 0.216.

For C8G C56A, which “polymerase ribozyme fitness (log ratio)” value is on record?
Its value is 0.399.

Which “polymerase ribozyme fitness (log ratio)” value does the source give for C8G C56A G77U C88G U92A G113C G122A C123G here?
Its value is -3.34.

For C8G C56A U78C G93A C123U, which “polymerase ribozyme fitness (log ratio)” value is on record?
The value was 1.31.

With C8G C62U C86G G117A A119U as the variant, how does the “polymerase ribozyme fitness (log ratio)” value read?
Its value is -0.52.

For C8G C62U C99U, which “polymerase ribozyme fitness (log ratio)” value is on record?
The value was -2.93.

With C8G C64U as the variant, how does the “polymerase ribozyme fitness (log ratio)” value read?
Its value is 0.927.

Which “polymerase ribozyme fitness (log ratio)” value does the source give for C8G C70U C80A C94G here?
The value was -5.61.

Which “polymerase ribozyme fitness (log ratio)” value does the source give for C8G C72A here?
The value was 0.366.

For C8G C73A, which “polymerase ribozyme fitness (log ratio)” value is on record?
The value was 1.91.

For C8G C73G, which “polymerase ribozyme fitness (log ratio)” value is on record?
The value was 0.0346.

Which “polymerase ribozyme fitness (log ratio)” value does the source give for C8G C79A here?
Its value is -0.929.

With C8G C79G G117U as the variant, how does the “polymerase ribozyme fitness (log ratio)” value read?
Its value is -1.37.

Which “polymerase ribozyme fitness (log ratio)” value does the source give for C8G C80A A90U G128C U129G here?
The value was -4.56.

With C8G C82A G117U as the variant, how does the “polymerase ribozyme fitness (log ratio)” value read?
The value was 0.587.

Which “polymerase ribozyme fitness (log ratio)” value does the source give for C8G C88A here?
Its value is -0.193.

Which “polymerase ribozyme fitness (log ratio)” value does the source give for C8G C89A A105C here?
Its value is -4.02.

For C8G C89U, which “polymerase ribozyme fitness (log ratio)” value is on record?
Its value is -0.514.

For C8G C97G, which “polymerase ribozyme fitness (log ratio)” value is on record?
Its value is -3.25.

For C8G C97U C102U, which “polymerase ribozyme fitness (log ratio)” value is on record?
The value was -1.4.

For C8G C98G U132C, which “polymerase ribozyme fitness (log ratio)” value is on record?
Its value is -4.39.

With C8G C101G G128U as the variant, how does the “polymerase ribozyme fitness (log ratio)” value read?
Its value is -3.26.

With C8G C102U U106C as the variant, how does the “polymerase ribozyme fitness (log ratio)” value read?
Its value is -0.803.

With C8G C115A U130G as the variant, how does the “polymerase ribozyme fitness (log ratio)” value read?
Its value is 1.67.

For C8G C124G, which “polymerase ribozyme fitness (log ratio)” value is on record?
Its value is 1.92.

With C8G G10A A16C A95U G122U as the variant, how does the “polymerase ribozyme fitness (log ratio)” value read?
Its value is -0.858.

Which “polymerase ribozyme fitness (log ratio)” value does the source give for C8G G10C G23C G25A G60C C88G G110A here?
Its value is -7.14.

For C8G G17U U81A U87C U96C G113A, which “polymerase ribozyme fitness (log ratio)” value is on record?
Its value is -4.04.

Which “polymerase ribozyme fitness (log ratio)” value does the source give for C8G G19A C76A here?
Its value is -3.65.

Which “polymerase ribozyme fitness (log ratio)” value does the source give for C8G G19A G69U C79U A111G U129C U133A here?
Its value is -1.15.

With C8G G19U G71A G113A U130C as the variant, how does the “polymerase ribozyme fitness (log ratio)” value read?
Its value is -2.08.

For C8G G23U A24U A41C G60U C86G C101A G120A, which “polymerase ribozyme fitness (log ratio)” value is on record?
Its value is -7.63.

Which “polymerase ribozyme fitness (log ratio)” value does the source give for C8G G35C C89U here?
Its value is -4.98.

With C8G G35U C123A as the variant, how does the “polymerase ribozyme fitness (log ratio)” value read?
The value was -3.92.

Which “polymerase ribozyme fitness (log ratio)” value does the source give for C8G G36A A74U A90G here?
Its value is -0.292.

With C8G G36A G44A C70G as the variant, how does the “polymerase ribozyme fitness (log ratio)” value read?
The value was -4.2.

For C8G G36U U54C A91C C124A, which “polymerase ribozyme fitness (log ratio)” value is on record?
The value was -0.94.

With C8G G39U C123U as the variant, how does the “polymerase ribozyme fitness (log ratio)” value read?
The value was 1.42.

With C8G G44C C49A C123G as the variant, how does the “polymerase ribozyme fitness (log ratio)” value read?
The value was 0.185.

For C8G G44C G60A, which “polymerase ribozyme fitness (log ratio)” value is on record?
The value was 0.198.

Which “polymerase ribozyme fitness (log ratio)” value does the source give for C8G G44U here?
The value was -0.116.

Which “polymerase ribozyme fitness (log ratio)” value does the source give for C8G G45U G63C A83U A91C U112A here?
The value was -1.6.

For C8G G47C C85G, which “polymerase ribozyme fitness (log ratio)” value is on record?
Its value is -1.92.

For C8G G48A G120C U125C, which “polymerase ribozyme fitness (log ratio)” value is on record?
Its value is 1.03.

For C8G G48U G58C G60U U125G, which “polymerase ribozyme fitness (log ratio)” value is on record?
The value was -0.353.

With C8G G48U G61U G93U U112A C124A as the variant, how does the “polymerase ribozyme fitness (log ratio)” value read?
Its value is -0.568.

For C8G G48U G93U U112A C124A, which “polymerase ribozyme fitness (log ratio)” value is on record?
Its value is -0.874.

With C8G G52C C62U C89U as the variant, how does the “polymerase ribozyme fitness (log ratio)” value read?
Its value is -1.08.

With C8G G52U G60A U96G as the variant, how does the “polymerase ribozyme fitness (log ratio)” value read?
The value was -0.693.

For C8G G58A C70U U96A, which “polymerase ribozyme fitness (log ratio)” value is on record?
Its value is -1.13.

Which “polymerase ribozyme fitness (log ratio)” value does the source give for C8G G61A U87G C123A here?
The value was 1.64.

For C8G G63C, which “polymerase ribozyme fitness (log ratio)” value is on record?
The value was -1.11.

For C8G G63C G117C C124A, which “polymerase ribozyme fitness (log ratio)” value is on record?
Its value is -1.86.

With C8G G69C G113A as the variant, how does the “polymerase ribozyme fitness (log ratio)” value read?
Its value is -1.36.

Which “polymerase ribozyme fitness (log ratio)” value does the source give for C8G G69U here?
Its value is 0.724.

With C8G G69U G107U G113A as the variant, how does the “polymerase ribozyme fitness (log ratio)” value read?
Its value is -1.04.

With C8G G71A as the variant, how does the “polymerase ribozyme fitness (log ratio)” value read?
Its value is 0.0703.

With C8G G71A C73A C94U C104U as the variant, how does the “polymerase ribozyme fitness (log ratio)” value read?
The value was -1.01.

With C8G G71A C82U C101A as the variant, how does the “polymerase ribozyme fitness (log ratio)” value read?
The value was -1.2.

Which “polymerase ribozyme fitness (log ratio)” value does the source give for C8G G71C here?
Its value is -0.095.

Which “polymerase ribozyme fitness (log ratio)” value does the source give for C8G G71U here?
The value was 0.189.

For C8G G107U G113A, which “polymerase ribozyme fitness (log ratio)” value is on record?
The value was -3.41.

Which “polymerase ribozyme fitness (log ratio)” value does the source give for C8G G113U here?
The value was -1.24.

With C8G G122A as the variant, how does the “polymerase ribozyme fitness (log ratio)” value read?
The value was 0.556.

With C8G G135U as the variant, how does the “polymerase ribozyme fitness (log ratio)” value read?
The value was -0.819.

From the RNAGym collection of RNA variant scans (doi:10.1073/pnas.2313332121)
